Square brackets hold non-standard residues; d marks the D form. Ends that are not written are not given here. sY = N[C@@H](Cc1ccc(OS(=O)(=O)O)cc1)C(=O)O
What was measured:
plant cell = settings: relative to PSK-α; cited from earlier work
[1] = system: Arabidopsis cultured cells; assay: Rate of cell division / proliferation of transgenic cells; format: cell-based, Arabidopsis thaliana; settings: for Cell proliferation of transformed Arabidopsis cultured cells: cells transformed by the gene
Description: Constructs were transformed into Agrobacterium tumefaciens (C58C1Rif^R) by triparental mating (Van Haute et al., 1983), and Agrobacterium-mediated transformation of roots of Arabidopsis Columbia ecotype was essentially as described (Valvekens et al., 1988). Transgenic microcalli were generated by incubating co-cultivated root explants for 3 weeks on the callus induction medium (B5+0.5 mg/l 2,4-D and 0.05 mg/l KIN) supplemented with 50 mg/l Kan sulphate (Life Technologies, Grand Island, N.Y., USA) and 750 mg/l vancomycin hydrochloride (Wako, Osaka, Japan). The individual regenerating microcalli were transferred to fresh medium to ensure that all transformants were due to independent T-DNA insertions. To detect the introduced genes, genomic DNA was isolated from transgenic calli, digested with BamHI, and allowed to hybridize with the labeled cDNA as described above. Arabidopsis cells transformed with the binary vector alone served as controls.
To examine whether AtPSK2 and AtPSKL indeed code for precursors to PSK, we transformed 28-day-old Arabidopsis roots with artificially mutated AtPSK2 or AtPSKL cDNAs in the sense orientation designed to produce [Ser^4]PSK-α instead of PSK-α, and the wild-type cDNAs in sense and antisense orientations, respectively. The chimeric genes were placed under the control of the constitutive cauliflower mosaic virus (CaMV) 35S promoter incorporated within the binary vector pMAT037 (Matsuoka and Nakamura, 1991). Arabidopsis cells transformed with the binary vector alone served as controls. B5 medium (Gamborg et al., 1968) supplemented with 0.5 mg/L 2,4-dichlorophenoxyacetic acid (2,4-D) and 0.05 mg/L kinetin (KIN) was used to induce calli.
The rate of cell division was investigated on the transgenic cells. The results on AtPSK2 and AtPSKL are shown in FIGS. 12 and 13, respectively. In FIGS. 12 and 13, A indicates the result of the sense transgenic cells, B indicates the result of the control cells, C indicates the result of the antisense transgenic cells, respectively. […]

Arabidopsis cells = assay: LC/MS quantification of PSK analogs secreted into conditioned medium (CM) by transgenic cells; format: cell-based, Arabidopsis thaliana; settings: cells transformed by the gene
Excerpt: A 22-mer primer (5′-[…]-3′) based on the nucleic acid sequence of the AtPSK2 cDNA and A 24-mer primer (5′-[…]-3′) based on the nucleic acid sequence of the AtPSKL cDNA were synthesized and used to obtain the mutated cDNAs that were designed to produce unnatural [Ser^4]PSK-α instead of PSK-α. Mutations were introduced with a LA PCR In Vitro Mutagenesis Kit (Takara) and confirmed by sequencing. The pMAT037 (Matsuoka and Nakamura, 1991) was employed as a binary vector for Arabidopsis root transformation. Original or mutated cDNAs were digested with SacI and HindIII or KpnI and inserted in-frame into the same sites of the vectors to construct chimeric genes harboring the cDNA in sense or antisense orientations, respectively. Expression of the chimeric genes was driven by the promoter of the CaMV 35S transcript.
Constructs were transformed into Agrobacterium tumefaciens (C58C1Rif^R) by triparental mating (Van Haute et al., 1983), and Agrobacterium-mediated transformation of roots of Arabidopsis Columbia ecotype was essentially as described (Valvekens et al., 1988). […]
Mass spectra were obtained using a Fisons VG platform quadruple mass spectrometer with electrospray ionization interfaced to a Jasco PU 980 HPLC system. […] The semiquantitative amounts of the PSK-α, PSK-β, [Ser^4]PSK-α and [Ser^4]PSK-β in CM were measured based on the peak heights without an internal standard. […]

In the case of [sY]I[sY]T [PSK-β], the “Cell proliferation activity compared to that of PSK-α” value (plant cell) is given as “less than one-tenth”.

For [sY]I[sY]TQ [PSK-α, reference compound], the “Effect of supplementation in the medium on decreased mitogenic activity of antisense transgenic cells” value ([1]; PSK-α added to medium of antisense transgenic cells) was “alternated in part”.

B1: AtPSKL gene: gene of 479 bases (SEQ ID NO: 4) encoding 79-amino-acid phytosulfokine precursor of Arabidopsis thaliana (nucleic acid, listed as Arabidopsis thaliana)
DNA: CTTCTCAGGCTCCCATTATCTTTCTCTATTTTGCAAATCAGTATGGGTAAGTTCACAACCATTTTCATCATGGCTCTCCTTCTTTGCTCTACGCTAACCTACGCAGCAAGGCTGACTCCGACGACAACCACCGCTTTGTCCAGAGAAAACTCCGTCAAGGAAATTGAAGGAGACAAGGTTGAAGAAGAAAGCTGCAACGGAATTGGAGAAGAAGAATGTTTGATAAGACGAAGCCTTCTTCTTCACACCGATTACATTTATACTCAGAATCACAAGCCCTAAGTTTCTGTATTAGAGCAATTAATTAACTAATTACATTATCAAACCTATCACTGTAGTACTTTCTGTTTTCTGTTCGTCTTTTTTGTTTTGTTTTGTTTATGTTATCGCTATTTTAAAGTTTCATTGTTATTTTGAAAGTTCTTACACCATCATTATTGATAGTCTCTTAAAACAAAAAAAAAAAAAAAAAAAAAAAA
In the case of B1, the “Cell proliferation of transformed Arabidopsis cultured cells” value [1] is reported as “cell proliferation was enhanced” and the “Secretion of PSK by transformed Arabidopsis cultured cells” value (Arabidopsis cells) is reported as “could secret the PSK”.

B2: AtPSK2 gene: gene of 545 bases (SEQ ID NO: 2) encoding 87-amino-acid phytosulfokine precursor of Arabidopsis thaliana (nucleic acid, listed as Arabidopsis thaliana)
DNA: TTTAAGCATCTCTCTCCCTTCAAAGAAAATATCACAAAAATGGCAAACGTCTCCGCTTTGCTCACCATAGCTCTTCTCCTTTGCTCCACGCTAATGTGCACTGCCCGCCCCGAACCGGCCATCTCCATCTCTATCACGACTGCTGCCGATCCATGTAACATGGAGAAGAAGATAGAAGGAAAATTAGATGACATGCATATGGTAGACGAAAACTGTGGTGCAGACGACGAAGATTGCTTAATGAGGAGGACTTTGGTCGCTCATACTGATTACATCTATACCCAGAAGAAGAAGCATCCTTGATTTTCACTTACTCATTTCTAACAAACTTTTGCTCAAGATTATGTAATTTATGTCATCCTTAATTAGTATTTGTCACATACAAGATCAAGATAGTTATGATTGTGATTATTTATATGTATTTTGGATGATATATTGTAGAACTAGAAGTTTGACAATAAAAAGTTTATAGTGTCGTTGTATGTTTAAGAAGTTTGACAATAAAAACTTTATAGTGTTGTTGCAAAAAAAAAAAAAAAAAAAAA
For B2, the “Cell proliferation of transformed Arabidopsis cultured cells” value [1] was “cell proliferation was enhanced” and the “Secretion of PSK by transformed Arabidopsis cultured cells” value (Arabidopsis cells) was “could secret the PSK”.

Reference: patent US20030032777A1, “Precursor polypeptide of phytosulfokine derived from Arabidopsis thaliana and a gene encoding said polypeptide” (priority 2001, published 2003)
